Assay results published in patent US20090048164A1.
Read-outs that look alike come from different tables or passages of the source.

How the values were obtained:
[1] = target: Recombinant human Bcl-xL with a 25 amino acid truncation of its C-terminus (human) (UniProt Q07817); assay: competition phage ELISA
[2] = target: mouse Mcl-1 with truncations of 151 amino acid residues at its N-terminus and 23 residues at its C-terminus (mouse) (UniProt P97287); assay: competition phage ELISA
Bcl-w [3] = assay: competition phage ELISA
[4] = target: Recombinant human Bcl-xL with a 25 amino acid truncation of its C-terminus (human) (UniProt Q07817); assay: Bim BH3 substitution scan
[5] = target: Recombinant human Bcl-xL with a 25 amino acid truncation of its C-terminus (human) (UniProt Q07817); assay: competition phage ELISA; remark: listed apart in the source
A1 [6] = assay: Biacore competition vs immobilised BimBH3
[7] = target: Recombinant human Bcl-xL with a 25 amino acid truncation of its C-terminus (human) (UniProt Q07817); assay: Biacore competition vs immobilised BimBH3
[8] = target: mouse Mcl-1 with truncations of 151 amino acid residues at its N-terminus and 23 residues at its C-terminus (mouse) (UniProt P97287); assay: Biacore competition vs immobilised BimBH3
Bcl-2 [9] = assay: competition phage ELISA
pro-survival proteins = assay: cell-based or functional assay
Bcl-w [10] = assay: Biacore competition vs immobilised BimBH3
Bcl-2 [11] = assay: Biacore competition vs immobilised BimBH3
A1 [12] = assay: Biacore competition, synthetic peptides
[13] = target: mouse Mcl-1 with truncations of 151 amino acid residues at its N-terminus and 23 residues at its C-terminus (mouse) (UniProt P97287); assay: Biacore competition, synthetic peptides
Bcl-w [14] = assay: Biacore competition, synthetic peptides; against wild-type BimBH3 peptide
A1 [15] = assay: as above
[16] = target: Recombinant human Bcl-xL with a 25 amino acid truncation of its C-terminus (human) (UniProt Q07817); assay: as above
[17] = target: mouse Mcl-1 with truncations of 151 amino acid residues at its N-terminus and 23 residues at its C-terminus (mouse) (UniProt P97287); assay: as above
Bcl-2 [18] = assay: as above

Chain of Recombinant human Bcl-xL with a 25 amino acid truncation of its C-terminus (human) (Q07817 1-208): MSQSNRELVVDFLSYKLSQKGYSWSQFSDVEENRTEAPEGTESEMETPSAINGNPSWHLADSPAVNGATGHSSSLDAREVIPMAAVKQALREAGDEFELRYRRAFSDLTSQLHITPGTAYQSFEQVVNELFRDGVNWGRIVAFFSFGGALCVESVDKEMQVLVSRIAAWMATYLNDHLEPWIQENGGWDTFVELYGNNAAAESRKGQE
Chain of mouse Mcl-1 with truncations of 151 amino acid residues at its N-terminus and 23 residues at its C-terminus (mouse) (P97287 152-308): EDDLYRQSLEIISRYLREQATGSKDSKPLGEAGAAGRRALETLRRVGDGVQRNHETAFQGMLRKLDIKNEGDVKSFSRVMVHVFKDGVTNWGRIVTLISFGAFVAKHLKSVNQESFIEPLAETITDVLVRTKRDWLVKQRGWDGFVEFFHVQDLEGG
Chain of Bcl-2 (P10415 1-217): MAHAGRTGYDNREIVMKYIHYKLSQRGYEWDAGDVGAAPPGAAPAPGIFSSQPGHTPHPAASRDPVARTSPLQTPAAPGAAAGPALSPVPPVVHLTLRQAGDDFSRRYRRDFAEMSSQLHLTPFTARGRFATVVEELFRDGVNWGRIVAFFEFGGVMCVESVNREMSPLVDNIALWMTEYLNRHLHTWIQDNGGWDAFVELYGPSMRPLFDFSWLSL
Chain of Bcl-w (Q92843 1-164): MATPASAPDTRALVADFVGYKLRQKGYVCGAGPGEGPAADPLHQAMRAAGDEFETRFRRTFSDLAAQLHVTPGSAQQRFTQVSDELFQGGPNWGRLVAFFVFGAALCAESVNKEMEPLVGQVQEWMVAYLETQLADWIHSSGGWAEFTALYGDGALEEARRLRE

| Substance | Fold/wt [1] | IC50 [1] | Fold/wt [2] | IC50 [2] | other results |
| --- | --- | --- | --- | --- | --- |
| Bim BH3 D1A, phage-displayed (peptide) | 1 fold | 3 nM | 1 fold | 10 nM |  |
| Bim BH3 L12A, phage-displayed (peptide) | 43 fold | 124 nM | 1 fold | 10 nM | Fold/wt (Bcl-w [3]): 24 fold; IC50 (Bcl-w [3]): 486 nM; fold decrease in affinity [4]: 50 to 80 fold; IC50 [5]: 130 nM; fold weaker than wild-type BimBH3 [5]: 50 fold |
| BimBH3 L12A + F19A synthetic peptide |  |  |  |  | Fold/wt BimBH3 (A1 [6]): 120 fold; Fold/wt BimBH3 [7]: > 1560 fold; Fold/wt BimBH3 [8]: 1 fold |
| Bim BH3 I15A, phage-displayed (peptide) | 1 fold | 2 nM | 1 fold | 10 nM | Fold/wt (Bcl-w [3]): 1 fold; IC50 (Bcl-w [3]): 18 nM; Fold/wt (Bcl-2 [9]): 1 fold; IC50 (Bcl-2 [9]): 7 nM |
| Bim BH3 G16E, phage-displayed (peptide) |  |  | 3 fold | 27 nM | fold effect on binding [2]: 38 fold |
| Bim BH3 E18A, phage-displayed (peptide) | 3 fold | 8 nM | 9 fold | 80 nM |  |
| BimS F19A |  |  |  |  | % viability in wild-type MEFs (pro-survival proteins): 22% |
| Bim BH3 D17A, phage-displayed (peptide) |  |  | 28 fold | 256 nM | fold effect on binding [2]: 15 fold |
| Bim BH3 L12F, phage-displayed (peptide) |  |  |  |  | fold decrease in binding affinity [4]: 5 fold |
| Bim BH3 L12W, phage-displayed (peptide) |  |  |  |  | fold decrease in binding affinity [4]: 22 fold |
| BimBH3 L12A synthetic peptide |  |  |  |  | Fold/wt BimBH3 (Bcl-w [10]): 31 fold; Fold/wt BimBH3 (A1 [6]): 17 fold; Fold/wt BimBH3 [7]: 11 fold; Fold/wt BimBH3 [8]: 1 fold; Fold/wt BimBH3 (Bcl-2 [11]): 43 fold; fold decrease in binding affinity (A1 [12]): 7 fold; fold decrease in binding affinity [13]: 2 fold |
| BimBH3 G16E synthetic peptide |  |  |  |  | Fold/wt BimBH3 (Bcl-w [10]): > 256 fold; Fold/wt BimBH3 (A1 [6]): 260 fold; Fold/wt BimBH3 [7]: 83 fold; Fold/wt BimBH3 [8]: 18 fold; Fold/wt BimBH3 (Bcl-2 [11]): 306 fold |
| Bim BH3 P4A, phage-displayed (peptide) | 1 fold | 3 nM | 1 fold | 12 nM |  |
| BimBH3 D17A synthetic peptide |  |  |  |  | Fold/wt BimBH3 (Bcl-w [10]): 30 fold; Fold/wt BimBH3 (A1 [6]): 1 fold; Fold/wt BimBH3 [7]: 3 fold; Fold/wt BimBH3 [8]: 2 fold; Fold/wt BimBH3 (Bcl-2 [11]): 4 fold |
| Bim BH3 R26A, phage-displayed (peptide) | 1 fold | 4 nM | 1 fold | 8 nM |  |
| Bim BH3 R14A, phage-displayed (peptide) | 2 fold | 5 nM | 1 fold | 10 nM |  |
| Bim BH3 N20A, phage-displayed (peptide) | 2 fold | 5 nM | 1 fold | 7 nM |  |
| Bim BH3 L12V, phage-displayed (peptide) |  |  |  |  | fold decrease in affinity [4]: 50 to 80 fold |
| Bim BH3 Y22A, phage-displayed (peptide) | 1 fold | 4 nM | 1 fold | 12 nM |  |
| wild-type full-length BimS |  |  |  |  | % viability in wild-type MEFs (pro-survival proteins): 19% |
| Bim BH3 R3A, phage-displayed (peptide) | 1 fold | 3 nM | 1 fold | 9 nM |  |
| Bim BH3 I8A, phage-displayed (peptide) | 2 fold | 7 nM | 1 fold | 9 nM | Fold/wt (Bcl-w [3]): 4 fold; IC50 (Bcl-w [3]): 74 nM; Fold/wt (Bcl-2 [9]): 3 fold; IC50 (Bcl-2 [9]): 17 nM |

| Substance | Fold/wt [1] | IC50 [1] | Fold/wt [2] | IC50 [2] | other results |
| --- | --- | --- | --- | --- | --- |
| BimBH3 I15A synthetic peptide |  |  |  |  | Fold/wt BimBH3 (Bcl-w [10]): 1 fold; Fold/wt BimBH3 (A1 [6]): 2 fold; Fold/wt BimBH3 [7]: 1 fold; Fold/wt BimBH3 [8]: 2 fold; Fold/wt BimBH3 (Bcl-2 [11]): 2 fold |
| Bim BH3 E5A, phage-displayed (peptide) | 1 fold | 3 nM | 1 fold | 10 nM |  |
| BimBH3 F19A synthetic peptide |  |  |  |  | Fold/wt BimBH3 (Bcl-w [10]): 8 fold; Fold/wt BimBH3 (A1 [6]): 1 fold; Fold/wt BimBH3 [8]: 1 fold; Fold/wt BimBH3 (Bcl-2 [11]): 3 fold; fold decrease in binding affinity (Bcl-w [14]): 8 fold; fold decrease in binding affinity (A1 [15]): < 3 fold; fold decrease in binding affinity [16]: < 3 fold; fold decrease in binding affinity [17]: < 3 fold; fold decrease in binding affinity (Bcl-2 [18]): < 3 fold |
| Bim BH3 Q10A, phage-displayed (peptide) | 1 fold | 4 nM | 1 fold | 10 nM |  |
| mNoxaA BH3 D26A, phage-displayed (peptide) |  |  | 2 fold | 62 nM |  |
| Bim BH3 R13A, phage-displayed (peptide) | 1 fold | 4 nM | 1 fold | 13 nM |  |
| Bim BH3 M2A, phage-displayed (peptide) | 2 fold | 4 nM | 1 fold | 13 nM |  |
| BimS G16E |  |  |  |  | % viability in wild-type MEFs (pro-survival proteins): 93% |
| BimBH3 A9E synthetic peptide |  |  |  |  | Fold/wt BimBH3 (Bcl-w [10]): 34 fold; Fold/wt BimBH3 (A1 [6]): 7 fold; Fold/wt BimBH3 [7]: 68 fold; Fold/wt BimBH3 [8]: 2 fold; Fold/wt BimBH3 (Bcl-2 [11]): 56 fold |
| Bim BH3 Y23A, phage-displayed (peptide) | 1 fold | 4 nM | 1 fold | 12 nM |  |
| BimS L12A |  |  |  |  | % viability in wild-type MEFs (pro-survival proteins): 57% |
| Bim BH3 A21E, phage-displayed (peptide) | 1 fold | 3 nM | 2 fold | 16 nM |  |
| Bim BH3 E11A, phage-displayed (peptide) | 1 fold | 4 nM | 1 fold | 10 nM |  |
| Bim BH3 A24E, phage-displayed (peptide) | 1 fold | 2 nM | 1 fold | 8 nM |  |
| Bim BH3 I6A, phage-displayed (peptide) | 3 fold | 8 nM | 1 fold | 11 nM |  |
| Bim BH3 R25A, phage-displayed (peptide) | 1 fold | 2 nM | 1 fold | 8 nM |  |
| Bim BH3 W7A, phage-displayed (peptide) | 1 fold | 3 nM | 1 fold | 10 nM |  |
| BimBH3 I8A synthetic peptide |  |  |  |  | Fold/wt BimBH3 (Bcl-w [10]): 2 fold; Fold/wt BimBH3 (A1 [6]): 1 fold; Fold/wt BimBH3 [7]: 1 fold; Fold/wt BimBH3 [8]: 1 fold; Fold/wt BimBH3 (Bcl-2 [11]): 3 fold |
| Bim BH3 A9E, phage-displayed (peptide) |  |  | 3 fold | 32 nM |  |
| BimS A9E |  |  |  |  | % viability in wild-type MEFs (pro-survival proteins): 55% |
| Bim BH3 F19A, phage-displayed (peptide) | 24 fold | 69 nM |  | 16 nM | Fold/wt (Bcl-w [3]): 18 fold; IC50 (Bcl-w [3]): 364 nM; IC50 (Bcl-2 [9]): 11 nM; IC50 [5]: 60 nM; fold weaker than wild-type BimBH3 [5]: 20 fold |
